# Measurements: the nanobody polyreactivity screen of Harvey et al. (2022)
# Assay: yeast display, Sf9 membrane polyspecificity reagent, FACS + sequencing; frameworks hold sequencing errors
# Outline: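 Polyreactivity labels are assigned by the sorting gate from which each nanobody was recovered. The gates were low and high (top ~1%), set on anti-HA fluorescence for expression and streptavidin fluorescence for reagent binding. Before sorting, galactose-induced (36–48 hours) yeast display cells were stained for 1 hour at 4 °C with 10% biotinylated, detergent-solubilized Sf9 membrane reagent.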
sequence,measurement,value
QVQLVESGGGLVQAGGSLRLSCAASGLTFGPNALGWYRQAPGQERELVAAITTGGGTNYADSVKGRFTISRDNAKNTVYLQMNSLKPEDTAVYYCAADALDSPDGYDYCGQGTQVTVSS,polyreactivity (PSR sort gate),low polyreactivity
QVQLVESGGGLVQAGGSLRLSCAASGSTFDVYAMGWYRQAPGKERELVAVINTSGTRTYYADSVKGRFTISRDNAKNTVYLQMNSLKPEDTAVYYCNAGGHLEMNYWGLGTQVTVSS,polyreactivity (PSR sort gate),low polyreactivity
QVQLVESGGGLVQAGGSLRLSCAASGSIFYYYAMGWYRQAPGKERELVAAITSGGRTKYADSVKGRFTISRDNAKNTVYLQMNSLKPEDTAVYYCATRAIWAYSTGYDYWGQGTQVTVSS,polyreactivity (PSR sort gate),high polyreactivity
QVQLVESGGGLVQAGGSLRLSCAASGSIFTTYAMGWSRQAPGKERELVAAISRSGGSTYSADSVKGRFTISRDNANYTVYLQKNSLKPEDTAVYYCNAVSRYTSDYEDDYWGLGTQVTVSS,polyreactivity (PSR sort gate),high polyreactivity
QVQLVESGGGLVQAGGSLRLSCAASGIIFRGYVMGWYRQAPGKERELVAAISRSGGRTYYADSVKGRFTISRDNAKNTVYLQMNSLKPEDTAVYYCNAVRYVLGYSYDYNYWGQGTQVTVSS,polyreactivity (PSR sort gate),high polyreactivity
QVQLVESGGGLVQAGGSLRLSCAASGSTFGRYVMGWYRQAPGKDRELVAAISKNAGSTYYADSVKGRFTISRDNAKNTVYLQMNSLKPEDTAVYYCAADWRTKGYDSLGQGTQVTVSS,polyreactivity (PSR sort gate),high polyreactivity
QFQLVESGGGLVQAGGSLRLSCASYGFTFEYNAMGGYRQSPGKESEFVATISWSGGSTYYADSVKGRFTFSRDKAKNTVYLQMNSLKPEDTAVYYCNAEVFFPSTYGMDYWGQGTQVTVSS,polyreactivity (PSR sort gate),low polyreactivity
QLQLVESGGGLVQAGGSLRLSCAASGSIFRVYAMGWYRQARGKERELVAAISSSGVRTSYADSVKGRFTISRDNAKNTVYLQMNSLKPEDTAVYYCADRYPYGYYHWGQGTQVTVSS,polyreactivity (PSR sort gate),high polyreactivity
QVQLVESGGGLVQAGGSLRLSCSASGSIFYVYAMGWYRPAPGKERELVAAITSSGTTNYADSVKGRFTISRDNAKNTVYLQMNSLKPEDTAVYYCAADPDSGQVPFDYWVQGTQVTVSS,polyreactivity (PSR sort gate),low polyreactivity
QVQLVESGGGLVQAGGSLRLSSAASGSIFFRNAMGWYRKAPGKERELVAAISRSGGNTYYADSVKGRFTISRDNAKNTVYLQMNSLKPEDTAVYYCAKYRTLYWYDYWGQGTQVTVSS,polyreactivity (PSR sort gate),high polyreactivity
QVQLVESGGGLVQAGGSLRLSCAASGNTVYYYGMGWYRQAPGKERDLVAAINYSGGSTYYADSVKGRNTISRDNAKNTVYLPMNSKKPEVTAVYYCNADYVPAYRDLASLADGYYWGQGTQVTVSS,polyreactivity (PSR sort gate),low polyreactivity
QVQLVESGGGLFQAGGSLRLSCAASGFIFARNAMSWYRQAPGKERELVAAISRNGGRTSYADSVKGRFTISRDNAKNTVYLQMNSMKAEDTAVYYCAKSQGYVSWTGAYSYDYWGQGTQVTVSS,polyreactivity (PSR sort gate),high polyreactivity
QVQLVESGGGLVQAGGSLRLSCAASGSTFTLNAMGWYRQAPGKERELVARISSGGGSTYYADSVNGRFTISRDNAKNTVYLQMNSLKPEDTAVYYCNAGNYRDKSYYWGQGTQVTVSS,polyreactivity (PSR sort gate),low polyreactivity
QVQLVESGGGLVQAGGSLRLSCAASGSTFRWYAMGWYRQAPGKERELVAAISWSGSTTYYADSVKGRFTISRDNAKNTVYLQMNSLKPEDTAVYYCAAEVVFFGWNYDYWGQGTQVTVSS,polyreactivity (PSR sort gate),high polyreactivity
QVQLEESGGGLVQAGGSLRLSCAASGRIFYYYTMGWYRQAPGKERELVAAISWGGVNTDYADSVKGRFTISRDNAKNTVYLQMNSLKPEDTAVYYCAAGRWSVGTYDYWGQGTQVTVSS,polyreactivity (PSR sort gate),low polyreactivity
QVQLVESGACLVQAGGSLRLSCAASGGIFYYYAMGWYRQAPGKERELVAVISPGGGRTYYADSVKGRFTISRDIAKNTVYLQKNSLKPEDTAVYYCARDSPGDGGREVARGSYNYWGQGTQVTVSS,polyreactivity (PSR sort gate),high polyreactivity
QVQLVESGGGLVQAGGSLRLSCAASGSIFLYNAMGWYRQAPGKERELVAGITFIGGSTYYADSVKGRFTISRDNAKNTVYLQMNSLKPEDTAVYYCNADVAPGIFYGYDSWGQGTQVTVSS,polyreactivity (PSR sort gate),low polyreactivity
QVQLVESGGGLVQAGGSLRLSCAASGITFFYNAMGWYRQAPGKERELVADITNSGSTYYADSVKGRFTISRDNAKNTVYLQMNSLKPEDTAVYYCAAGQAYDYFVYYPDDYWGQGTQVTVSS,polyreactivity (PSR sort gate),low polyreactivity
HVQLVESGGGLVQAGGSLRLSCAASGRIFVDYVMGWYRQAPGKERELVARITWIGGNTYYADSVKGRFTISRDNAKNTVYFQMNCLKPEDTAVYYSNAGLTLLSRRHEGWYGDDYWGPGTQVTVSS,polyreactivity (PSR sort gate),low polyreactivity
QDQLVESGGGLVQAVGSLRLSCAASGFTFYRNAMGWYRQAPGKERELVAAITWSGTSTYFADSVKGRFTISRDNAQNTVYLQLNSLKPEDTAVYYCNARGFQKSDPRGYLILNYWGQGTQVTVSS,polyreactivity (PSR sort gate),high polyreactivity
QVQLVESGGGLVQAGGSLRLSCAASGRIFPWYAMGWYRQAPGKERELVATISSSGRTNYADSVKGRFTISRDNAKNTVYLQLNSLQPEDTAVYFCAATLYHYWYADFDYWGQGTQVTVSS,polyreactivity (PSR sort gate),high polyreactivity
QVQLVETGAGLVQAGGSLRLSSAASGRTLYPYAMGWSRQSPGNERELVAAISSRGGSTYYADSVKGRFTISRDIAKNTVYLQMNSLKPEDTAVYYCAKTYRKILSITGDVPWTDYYWGQGTQVTVSS,polyreactivity (PSR sort gate),low polyreactivity
QVQLVESGGGLVQAGGSLRLSCAASGLIFLWYAMGWYRQAPGKERELVAAIRSSGDSTYYADSVKGRFTISRDNAKNTVYLQMNSLKPEDTAVYYCNRRKTNSRYDYWGQGTQVTVSS,polyreactivity (PSR sort gate),low polyreactivity
QVQLVESGGGLVQAGGSLRLSCAASGFIFWDNTMGWYRQAPGKERELVAAISGGDGTYYADSVKGRFTISRDNAKNTVYLQLNSLKPEDTAVYYCNAATAEVKLYGKYDYWGQGTQVTVSS,polyreactivity (PSR sort gate),low polyreactivity
QVQLVESGGGLVQAGGSLRLSCAASGRIFVDNDMGWYRQAPGKERELVAAISGNGGNTNYADSVKGRFTISRDNAKNTVYLQMNSLKPEDTAVYYCAATYPVGHVYRYDYWGQGTQVTVSS,polyreactivity (PSR sort gate),low polyreactivity
QVQLVESGGGLVQAGGSLRLSCAASGLSFPLNAMGWYRPAPGKERQLVAAITYSGGGTYYADSVKGRFTISRDTAKNTGYLQMNSLKTEDTAVYYCAADGSVSYYTYYYWGQGTQVTVSS,polyreactivity (PSR sort gate),low polyreactivity
QVNLVESGGGLVQAGGSLRLSCAAYGRTFRTNAMRCNRQEPGKERELFAAITYSGDSTYYADSVKGRFTISRDNEKNTVYLQMNSLKPEDTAVYYCNARLLSGPGYDYWRQGTQVTVSS,polyreactivity (PSR sort gate),low polyreactivity
QVQLVESGGGLVQARGSLRLSCAASGSTFYYNTMGWYRQAPGKERELVAAITSSGGRTYYADSVKGRFTISRDNAKNTVYLQMNSLKPEDTAVYYCAAKRVGSTANRRVTKYDWGQGTQVTVSS,polyreactivity (PSR sort gate),high polyreactivity
QVQLVESGGGLVQAGGSLRLSCAASGRIFRFYAMGWYRQAPGKERELVAGITYSGGSTFYADSVKGRFTISRDNAKNTVYLQMNSLKPEDTAVYYCAAVYVPYYWLGRSRGLDYWGQGTQVTVSS,polyreactivity (PSR sort gate),high polyreactivity
QVHLVESGGGLVQAGGSLRLSCAASGRTFPYNAMGGYRQAPGKERELVAAISSGGSTTYADSVKGRFTISRDNAKNTVYLQMNSQKPEDTAVYYCATKYQRRPYRYYYWGQGTQVTVSS,polyreactivity (PSR sort gate),low polyreactivity
QVQLVESGGGLVQAGGSLRLICAASGNTLGPYAMGWYRQAPGKERELVAAITWSGGITDYADSVKGRFTISRDNAKNTVYLQMNSLKPEDTAVYYCNAGPSLGIFQGTSVGLRYDYWGQGTQVTVSS,polyreactivity (PSR sort gate),low polyreactivity
QVQLVESGGGLVQAGGSLRLSCAASGRTFYYYTMGWSRQAPGKERELVAAITSVGSTSYADSVKGRFTISRANAKNTVYLQMNSPKPEATAVYYCAADYQYVWFYYWGQGTQVTVSS,polyreactivity (PSR sort gate),high polyreactivity
QVQLVESGGGLVQAGGSLRLSCASSGGIFASNVMGWYRQAPGKERELVAAISSITGSTYYADSVKGRFTISRDNAKNTVYLQMNSLKPEDTAVYYCAAYVQFAKIRFDYWGQGTQVTVSS,polyreactivity (PSR sort gate),high polyreactivity
QVQLVESGGGLVQAGGSLRLSCAASGFTFNGYAMGWYRQAPGKERELVAAINWSGGRTYYADSVKGRFTISRDNAKNTVYLQMNSLKPEDTAVYYCNAVLYVTNSFRFDYWGQGTQVTVSS,polyreactivity (PSR sort gate),high polyreactivity
QVQLEESGGRLVQAGGSLRLSCAASGSIFALYAMGWYRQAPGKERELVAAIDWSDGGTYYADSVKGRFTISRDNAKNTLYLQMNSLKPEDTAVYYCNRVYSTSRITQYEFDYWGQGTQVTVSS,polyreactivity (PSR sort gate),low polyreactivity
QVQLVESGGGLVQAGGSLRLSCAASGLTFHTNTMGWYRQAPGKERELVAAITWRDDSTYYADSVKGRFTISRDYAMNTVYLQMNSLKPEDTAVFYCAARGGAYLWYHYDYWGQGTQVTVSS,polyreactivity (PSR sort gate),low polyreactivity
QVQLVESGGGLVKAGGSLRLSFAASGRIFRRYAMGWCGPAPGKEREFVAAITKSGGSTNYADSVKGRFTISRDNANNTVYLQMNSLKPEDTAVYYCATYPQFYFRYDYWGLGTQVTVSS,polyreactivity (PSR sort gate),high polyreactivity
QVQLVESGGGLVQAGGSLRLSCAASGITFPFYAMGWYRQAPGKERELVAGITSGGSTYYADSVKGRFTISRDNAKNTVYLQMNSLKPEDTAVYYCAAPFYRQSLIEYDFWGQGTQVTVSS,polyreactivity (PSR sort gate),high polyreactivity
QVQLVESCGCLVQAGGSLRLSCAASGIIFFPYAMGWYRQAPGKEREFVAAITSRRGSTYYADSVKGRFTISRDNPKNTVYLQMNILKPEDTAVYYCAAAWCAPSRFFSAFDYWGQGTQVTVSS,polyreactivity (PSR sort gate),low polyreactivity
QVQLVESGGGLVQAGGSLRLSCAASGSIISNYVMGWYRPAPGKERELVAAITRRGGRTYYADSVKGRFTISRDNAKNTVYLQMNSLKPEDTAVYYCAAERYPEAGSPYGTAEMDYWGQGTLVTVSS,polyreactivity (PSR sort gate),high polyreactivity
QVQLVESGGGLVQAGGSLRLSCAASGSNFPWNAKGWYRQAPGKERELVAGINESGGSTYYADSVKGRFTISRDYAKNTVYLQMNSLKPEDTAVYYCAADGYPSVGDDYWGQGTQVTVSS,polyreactivity (PSR sort gate),low polyreactivity
QVQLVESGGVLVQAGGSLPLSCAASGSTFRPNAMGWYRQAPGKERELVDGISLNGTTTYYADSVKGRFTISRDNEKNTVYIQMNSLKPVDTAVYYCSADYQFGSAAEPYVFFDPEMDYWGQGTQVTGSS,polyreactivity (PSR sort gate),low polyreactivity
QVQLVESGGGLVQAGGSLRLICAASGYTFSFYAMGWYIQAPGKERELVAAISRSGGSTYYADSVKGRFTISRDNAKNTVYLQMNSLKPEYTAVYYCAARWPGAYHEYGYWGQGTQVTVSS,polyreactivity (PSR sort gate),high polyreactivity
